B1: P. aeruginosa APS reductase (enzyme, UniProt O05927 1-267, looked up)
chain: MLPFATIPATERNSAAQHQDPSPMSQPFDLPALASSLADKSPQDILKAAFEHFGDELWISFSGAEDVVLVDMAWKLNRNVKVFSLDTGRLHPETYRFIDQVREHYGIAIDVLSPDPRLLEPLVKEKGLFSFYRDGHGECCGIRKIEPLKRKLAGVRAWATGQRRDQSPGTRSQVAVLEIDGAFSTPEKPLYKFNPLSSMTSEEVWGYIRMLELPYNSLHERGYISIGCEPCTRPVLPNQHEREGRWWWEEATHKECGLHAGNLISKA
notes: APS reductase of P. aeruginosa, gene amplified from P. aeruginosa genomic DNA ATCC 47085D; Cloned into pET24b or pET14b; source: E. coli BL21(DE3), purified (HiTrap Chelating, Superdex 200 gel filtration)

Assays:
[1] = target: E. coli PAPS reductase (E. coli); experiment: SEC; Superdex 200 gel filtration; 50 mM Tris-HCl (pH 8.0), 10% glycerol, 5 mM DTT, ionic strength adjusted to 150 mM with NaCl; column calibrated with protein standards; no change in retention volume when DTT was omitted
[2] = target: the molecule itself; experiment: as above

Row | Molecule | stoichiometry N [1] | stoichiometry N [2]
1 | E. coli PAPS reductase (enzyme) | 2 | 
2 | B1 |  | 4

Source: article PMC1175818, “A Conserved Mechanism for Sulfonucleotide Reduction” (PLoS Biology, 2005)
